Results reported in PMC3325190 (PLoS Pathogens, 2012).
[ ]: non-standard residue; d: D form. SeMet = C[Se]CC[C@H](N)C(=O)O

Key:
AmrZ WT = target: T1, AmrZ WT (Pseudomonas aeruginosa PAO1, UniProt G3XCY4 1-108); experiment: fluorescence anisotropy; settings: protein: recombinant; tags: N-terminal poly-His with 3C site, cleaved by PreScission; chain copies: 4; blunt
T1 sequence: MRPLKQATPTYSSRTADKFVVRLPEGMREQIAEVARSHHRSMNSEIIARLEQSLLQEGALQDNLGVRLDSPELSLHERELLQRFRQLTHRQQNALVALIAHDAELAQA

AmrZ delta42 = target: T2, AmrZ delta42 (Pseudomonas aeruginosa PAO1, UniProt G3XCY4 1-66); experiment: X-ray crystal structure (3.1 A); 50 mM MgSO4; SeMet protein; 100 mM Bis-Tris pH 6.5, 150 mM NaCl, 5% glycerol, 100 ug/ml BSA, 100 nM nonspecific DNA, 1 nM 6-FAM 22-mer, 25 C; settings: protein: recombinant; tags: N-terminal poly-His with 3C site, cleaved by PreScission; chain copies: 4
T2 sequence: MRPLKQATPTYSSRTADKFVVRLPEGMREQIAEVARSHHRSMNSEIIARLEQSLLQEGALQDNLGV

[1] = target: the molecule itself; experiment: crystal structure; Se-Met Δ42 AmrZ in complex with 18 bp amrZ1 DNA; hanging drop vapor diffusion at 25°C, 3% PEG8K, 0.1 M MES pH 6.0, 0.15 M NaCl, 2 mM TCEP, 50 mM MgSO4; 3.1 Å; dimer and dimer of dimers seen on the DNA

B1: AATT amrZ1 (dsDNA)
DNA 1: GTACTGGCAATTCGCCGGCACG
DNA 2: CGTGCCGGCGAATTGCCAGTAC
In the case of B1, the Kd (AmrZ WT) is reported as 58.6 ± 7.5 nM.

B2: m8 algD (dsDNA)
DNA 1: CATTGGCAATTACCAGCCTCCC
DNA 2: GGGAGGCTGGTAATTGCCAATG
Work on B2 yielded a Kd (AmrZ WT) of 365 ± 30 nM.

B3: TTC/GC amrZ1 (dsDNA)
DNA 1: GTACTTTCCGCGCGAAGGCACG
DNA 2: CGTGCCTTCGCGCGGAAAGTAC
For B3, the Kd (AmrZ WT) was 2050 ± 180 nM.

B4: m6 algD (dsDNA)
DNA 1: CATTGTCCATTACCAGCCTCCC
DNA 2: GGGAGGCTGGTAATGGACAATG
Binder B4 has a Kd (AmrZ WT) of 723 ± 37 nM.

B5: WT amrZ1 (dsDNA)
DNA 1: GTACTGGCAAAACGCCGGCACG
DNA 2: CGTGCCGGCGTTTTGCCAGTAC
In the case of B5, the Kd (AmrZ WT) is reported as 8.41 ± 0.8 nM.

B6: WT algD (dsDNA)
DNA 1: CATTGGCCATTACCAGCCTCCC
DNA 2: GGGAGGCTGGTAATGGCCAATG
B6 was tested, and the Kd (AmrZ WT) was 198 ± 14 nM.

B7: amrZ1 18 bp crystal oligo (dsDNA)
DNA 1: ACTGGCAAAACGCCGGCA
DNA 2: TGCCGGCGTTTTGCCAGT
B7: binds (AmrZ delta42).

B8: TTTT amrZ1 (dsDNA)
DNA 1: GTACTGGCTTTTCGCCGGCACG
DNA 2: CGTGCCGGCGAAAAGCCAGTAC
For B8, the Kd (AmrZ WT) was 41.7 ± 5.1 nM.

B9: m16 algD (dsDNA)
DNA 1: CATTGGCCATTACCATCCTCCC
DNA 2: GGGAGGATGGTAATGGCCAATG
B9 gave a Kd (AmrZ WT) of 203 ± 17 nM.

B10: m17 algD (dsDNA)
DNA 1: CATTGGCCATTACCAGACTCCC
DNA 2: GGGAGTCTGGTAATGGCCAATG
B10 showed a Kd (AmrZ WT) of 212 ± 19 nM.

B11: ATAT amrZ1 (dsDNA)
DNA 1: GTACTGGCATATCGCCGGCACG
DNA 2: CGTGCCGGCGATATGCCAGTAC
Binder B11 has a Kd (AmrZ WT) of 39.1 ± 4.6 nM.

B12: m7 algD (dsDNA)
DNA 1: CATTGGACATTACCAGCCTCCC
DNA 2: GGGAGGCTGGTAATGTCCAATG
In the case of B12, the Kd (AmrZ WT) is reported as 530 ± 52 nM.

B13: m14 algD (dsDNA)
DNA 1: CATTGGCCATTACAAGCCTCCC
DNA 2: GGGAGGCTTGTAATGGCCAATG
Work on B13 yielded a Kd (AmrZ WT) of 216 ± 17 nM.

B14: CGCG amrZ1 (dsDNA)
DNA 1: GTACTGGCCGCGCGCCGGCACG
DNA 2: CGTGCCGGCGCGCGGCCAGTAC
For B14, the Kd (AmrZ WT) was 63.4 ± 7.3 nM.

B15: m13 algD (dsDNA)
DNA 1: CATTGGCCATTAACAGCCTCCC
DNA 2: GGGAGGCTGTTAATGGCCAATG
B15 showed a Kd (AmrZ WT) of 256 ± 20 nM.

B16: TTC amrZ1 (dsDNA)
DNA 1: GTACTTTCAAAACGAAGGCACG
DNA 2: CGTGCCTTCGTTTTGAAAGTAC
For B16, the Kd (AmrZ WT) was 109 ± 13 nM.

B17: Δ42 AmrZ (C-terminal truncation mutant of AmrZ, residues 1–66) (domain or fragment)
chain: [SeMet]RPLKQATPTYSSRTADKFVVRLPEG[SeMet]REQIAEVARSHHRS[SeMet]NSEIIARLEQSLLQEGALQDNLGV
notes: not shown: poly-Histidine, N-terminal, cleaved
B17 was tested, and the “stoichiometry N” value [1] was 4.

B18: GTC amrZ1 (dsDNA)
DNA 1: GTACTGTCAAAACGACGGCACG
DNA 2: CGTGCCGTCGTTTTGACAGTAC
With B18 the Kd (AmrZ WT) was 82.7 ± 8.6 nM.

B19: m5 algD (dsDNA)
DNA 1: CATTTGCCATTACCAGCCTCCC
DNA 2: GGGAGGCTGGTAATGGCAAATG
B19 showed a Kd (AmrZ WT) of 164 ± 17 nM.
